Paper PMC3927142

Tests used:
Test in all cases: flow cytometry on cells
EI2.4.6 (human) = EI2.4.6 (human) (UniProt P02751)
EI1.4.1 (human) = EI1.4.1 (human) (UniProt P02751)
E6.2.10 (human) = E6.2.10 (human) (UniProt P02751)

Question: What does the source list for “EGFR mutant 404SG (from UniProt P00533 25-1210) (receptor)”?
Answer: Kd (EI2.4.6 (human)): 2.9 nM; Kd (EI1.4.1 (human)): 0.85 nM; Kd (E6.2.10 (human)): 0.96 nM
